Target: Mlph-ABD labelled with ATTO 488 NHS Ester dye (mouse) (UniProt Q91V27)
Assay: MST

Sequence of UniProt Q91V27 (Q91V27 401-590): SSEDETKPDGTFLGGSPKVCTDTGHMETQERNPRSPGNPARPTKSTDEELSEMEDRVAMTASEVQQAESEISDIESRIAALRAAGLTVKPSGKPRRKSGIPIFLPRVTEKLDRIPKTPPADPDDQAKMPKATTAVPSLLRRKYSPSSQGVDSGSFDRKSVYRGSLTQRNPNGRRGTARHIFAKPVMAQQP

With “Flag-Myo5a-MTD (residues 1106-1467), bacterial-expressed (domain or fragment)” the Kd was 562 nM.
